This test has as its target His-mATGL288-Str (expression product of pST44-HIS-SMT3-TEV-mATGL288-STR) (mouse) (UniProt Q8BJ56).

1 substance from PMC8506970 can be followed below.

Sequence of His-mATGL288-Str (expression product of pST44-HIS-SMT3-TEV-mATGL288-STR) (mouse) (Q8BJ56 1-288): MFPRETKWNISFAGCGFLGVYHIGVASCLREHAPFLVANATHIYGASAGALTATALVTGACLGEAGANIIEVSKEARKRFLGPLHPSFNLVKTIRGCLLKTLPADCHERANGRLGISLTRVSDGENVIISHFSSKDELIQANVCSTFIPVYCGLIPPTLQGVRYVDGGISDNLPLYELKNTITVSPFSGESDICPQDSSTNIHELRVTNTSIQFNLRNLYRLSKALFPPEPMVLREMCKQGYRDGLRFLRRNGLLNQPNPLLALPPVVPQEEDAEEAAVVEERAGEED
Sequence of CGI-58 (expression product of pST44-SMT3-TEV-mCGI58-HIS) (Q9DBL9 whole entry): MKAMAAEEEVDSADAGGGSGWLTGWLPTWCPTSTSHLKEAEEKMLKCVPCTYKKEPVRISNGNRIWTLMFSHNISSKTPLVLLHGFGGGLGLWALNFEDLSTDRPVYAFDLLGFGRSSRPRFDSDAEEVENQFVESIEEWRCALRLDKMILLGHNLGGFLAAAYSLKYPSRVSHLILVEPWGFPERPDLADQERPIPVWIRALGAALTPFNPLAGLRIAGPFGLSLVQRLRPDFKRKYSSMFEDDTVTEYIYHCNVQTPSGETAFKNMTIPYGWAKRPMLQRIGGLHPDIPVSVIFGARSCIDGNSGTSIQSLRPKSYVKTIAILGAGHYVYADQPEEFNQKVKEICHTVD

As for “CGI-58 (expression product of pST44-SMT3-TEV-mCGI58-HIS) (from UniProt Q9DBL9 1-351) (natural protein)”, the TAG hydrolase activity of His-mATGL288-Str coactivated by CGI-58 after storage at 4 °C, against fresh protein is 50 % loss; the TAG hydrolase activity of His-mATGL288-Str coactivated by CGI-58 within 10 days of storage at -80 °C (snap frozen, 10% glycerol), against fresh protein came out at 50 % loss; the TAG hydrolase activity of freshly purified His-mATGL288-Str, CGI-58-stimulated against basal (equimolar mCGI-58) was determined as 10 fold; the TAG hydrolase activity upon CGI-58 coactivation of His-mATGL288-Str frozen in sucrose buffer at -80 °C, alone or as complex with CGI-58, against fresh protein was 40 % loss.
